Measurements reported in patent publication US20050042747A1, “Hivgp120-induced bob/gpr15 activation” (priority 2001, published 2005).
“Also recorded” adds a separate entry of the source. Like-named read-outs stand apart in the source and are kept apart here.

Legend:
Assay type in all cases: cell-based
Bob = molecular target: T1, Bob (Homo sapiens, UniProt P49685); assay: gp120-induced calcium flux, Ghost (3) cells transfected with Bob (Fluo-4); design: key to minimal concentration of gp120 resulting in a significant calcium flux: — = no calcium flux seen at any dilution tested; settings: for minimal concentration of gp120 resulting in a significant calcium flux: Ghost (3) Bob cells
T1 construct: host or cells: Ghost (3) cells (human osteosarcoma, also transfected with CD4 and a GFP reporter)
T1 sequence (P49685 1-360): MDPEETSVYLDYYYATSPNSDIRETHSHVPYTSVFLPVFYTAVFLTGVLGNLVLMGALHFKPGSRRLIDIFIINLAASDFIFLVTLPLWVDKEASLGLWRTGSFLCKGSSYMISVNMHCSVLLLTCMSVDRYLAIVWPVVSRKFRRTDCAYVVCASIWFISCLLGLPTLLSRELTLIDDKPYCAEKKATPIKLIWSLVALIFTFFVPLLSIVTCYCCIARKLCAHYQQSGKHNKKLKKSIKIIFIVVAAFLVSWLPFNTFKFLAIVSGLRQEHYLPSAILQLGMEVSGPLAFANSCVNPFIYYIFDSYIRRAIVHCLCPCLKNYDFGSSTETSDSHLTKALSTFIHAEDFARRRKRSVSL
Experimental: (§1) Calcium studies were done on HT-29 cells and Ghost (3) cells loaded with Fluo 4. The cells were placed in Locke's buffer containing 5 μg/ml Fluo 4 AM ester (Molecular Probes) for 20 to 30 minutes, then in Locke's buffer for an additional 30 minutes before testing. Various concentrations of gp120IIIB (X4 trophic), gp120CM235 (R5 trophic), gp120mN (X4 trophic), gp12093TH975 (nonsyncytium-inducing primary isolate from an asymptomatic subject, trophism undetermined but likely R5), and gp120SF2 (X4R5 trophic), ranging from 10 nM to less than 1 pM, were added in Locke's buffer.^6 The gp120 proteins were obtained from the AIDS Research Reagent Referral Program. Some HT-29 cells were given one of the following pretreatments: 50 μg/ml anti-Bob37 overnight, 1 μg/ml pertussis toxin overnight, or 4.6 μg/ml U73122 for one hour. With the HT-29 cells only, similar tests were also performed with SDF-1, MIP-1α, MIP-1β, and RANTES rather than gp120. The cells were visualized every 4 seconds in a confocal microscope, using 488 nm argon laser excitation and detection filters appropriate for fluorescein-like dyes.
(§2) Human osteosarcoma cell lines were transfected to express CD4, one or another of the HIV coreceptors, and a Green Fluorescent Protein reporter for active HIV infection, for the purpose of testing which of the known coreceptors was used to induce HIV infection by a given HIV strain (Morner A. J Virol 73:2343-9, 1999 and Deng K Nature 388:296-300, 1997). These cells were obtained from the AIDS Research and Reference Reagent Program, courtesy of Dr. Vineet KewalRamani and Dr. Dan Littman. These cells were grown in DMEM with 10% bovine calf serum supplemented with 0.5 mg/ml G418, 0.1 mg/ml hygromycin, and 1 microgram/ml puromycin, and were used at low passage number (less than 10). We have discovered that these cell lines are also activated by gp120 of certain viral strains, inducing a calcium flux in these cells.
Within 4 days of plating, coreceptor-transfected Ghost (3) cells (as well as the parent cell line not transfected to express any HIV coreceptors as a control) were put in Locke's medium, then treated with Fluo-4 (5 micrograms/ml for 30 minutes at 37° C.). After an additional 30 minute incubation in Locke's buffer at room temperature, the cells were examined in a confocal microscope while gp120 of various viral strains was added, and the cells were examined at 4 second intervals to look for a gp120-induced calcium flux. The results are given in the following table, expressed as the minimal concentration of gp120 resulting in a significant calcium flux. “−” means that no reproducible calcium flux was observed. “ND” means that the gp120 of that viral strain was not tested with the stated coreceptor.
These cells were treated with serial dilutions (100 or 250 nM to at least 1 pM, or even less if calcium fluxes were noted) of gp120. Gp120s from each of four HIV-1 strains: IIIB, CM235, SF2, and […] were used. Listed is the greatest dilution which induced a significant, reproducible calcium flux. The parental line is known to express CXCR4 at very low levels. Those results indicated by an asterisk are thought to represent this artifact.

CXCR4 = molecular target: T2, CXCR4 (Homo sapiens, UniProt P61073); assay: gp120-induced calcium flux, Ghost (3) cells transfected with CXCR4; design: key: — = no calcium flux seen at any dilution tested; settings: Ghost (3) CXCR4 cells
T2 construct: host or cells: Ghost (3) cells (human osteosarcoma, CD4+)
Experimental: as §1, §2
(§3) Within 4 days of plating, coreceptor-transfected Ghost (3) cells (as well as the parent cell line not transfected to express any HIV coreceptors as a control) were put in Locke's medium, then treated with Fluo-4 (5 micrograms/ml for 30 minutes at 37° C.). After an additional 30 minute incubation in Locke's buffer at room temperature, the cells were examined in a confocal microscope while gp120 of various viral strains was added, and the cells were examined at 4 second intervals to look for a gp120-induced calcium flux. The results are given in the following table, expressed as the minimal concentration of gp120 resulting in a significant calcium flux. “−” means that no reproducible calcium flux was observed. “ND” means that the gp120 of that viral strain was not tested with the stated coreceptor. […]

CCR5 = molecular target: T3, CCR5 (Homo sapiens, UniProt P51681); assay: gp120-induced calcium flux, Ghost (3) cells transfected with CCR5; design: key: — = no calcium flux seen at any dilution tested; settings: Ghost (3) CCR5 cells
T3 construct: host or cells: Ghost (3) cells (human osteosarcoma, CD4+)
Experimental: as §1, §2, §3

CCR1 = molecular target: T4, CCR1 (Homo sapiens, UniProt P32246); assay: gp120-induced calcium flux, Ghost (3) cells transfected with CCR1; design: key: — = no calcium flux seen at any dilution tested; settings: Ghost (3) CCR1 cells
T4 construct: host or cells: Ghost (3) cells (human osteosarcoma, CD4+)
T4 sequence (P32246 1-355): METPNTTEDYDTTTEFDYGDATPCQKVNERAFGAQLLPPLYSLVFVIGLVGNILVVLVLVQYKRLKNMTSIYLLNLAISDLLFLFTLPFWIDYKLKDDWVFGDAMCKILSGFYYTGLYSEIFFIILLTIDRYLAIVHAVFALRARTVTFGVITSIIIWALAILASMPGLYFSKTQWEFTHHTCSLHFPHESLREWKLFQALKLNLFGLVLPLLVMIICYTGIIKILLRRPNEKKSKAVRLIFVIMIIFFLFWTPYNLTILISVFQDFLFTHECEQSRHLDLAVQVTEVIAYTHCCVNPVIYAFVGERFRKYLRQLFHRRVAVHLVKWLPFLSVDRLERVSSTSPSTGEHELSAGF
Text: as §2
(§4) Within 4 days of plating, coreceptor-transfected Ghost (3) cells (as well as the parent cell line not transfected to express any HIV coreceptors as a control) were put in Locke's medium, then treated with Fluo-4 (5 micrograms/ml for 30 minutes at 37° C.). […] The results are given in the following table, expressed as the minimal concentration of gp120 resulting in a significant calcium flux. […]

CX3CR1 = molecular target: T5, CX3CR1 (Homo sapiens, UniProt P49238); assay: gp120-induced calcium flux, Ghost (3) cells transfected with CX3CR1; design: key: — = no calcium flux seen at any dilution tested; settings: Ghost (3) CX3CR1 cells
T5 construct: host or cells: Ghost (3) cells (human osteosarcoma, CD4+)
T5 sequence (P49238 1-355): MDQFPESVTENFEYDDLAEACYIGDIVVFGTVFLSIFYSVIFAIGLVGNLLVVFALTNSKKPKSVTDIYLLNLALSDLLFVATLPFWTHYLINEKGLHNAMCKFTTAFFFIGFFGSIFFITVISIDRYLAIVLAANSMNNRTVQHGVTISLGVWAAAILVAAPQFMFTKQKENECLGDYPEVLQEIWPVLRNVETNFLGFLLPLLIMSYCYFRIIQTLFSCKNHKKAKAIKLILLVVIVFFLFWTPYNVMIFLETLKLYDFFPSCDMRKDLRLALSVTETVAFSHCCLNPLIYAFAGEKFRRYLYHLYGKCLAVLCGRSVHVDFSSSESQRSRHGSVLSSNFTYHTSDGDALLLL
Text: as §2, §4

CXCR6/Bonzo = molecular target: T6, CXCR6/Bonzo (Homo sapiens, UniProt O00574); assay: gp120-induced calcium flux, Ghost (3) cells transfected with CXCR6/Bonzo; design: key: — = no calcium flux seen at any dilution tested; settings: Ghost (3) CXCR6/Bonzo cells
T6 construct: host or cells: Ghost (3) cells (human osteosarcoma, CD4+)
Text: as §2, §4

Substance | Bob activation / calcium signals in Bob-transfected Ghost (3) cells, in words (Bob) | minimal concentration of gp120 resulting in a significant calcium flux (Bob; serial dilutions) [fM] | minimal concentration of gp120 resulting in a significant calcium flux (CXCR4) | minimal concentration of gp120 resulting in a significant calcium flux (CXCR4; listed as IIIB) [pM] | minimal concentration of gp120 resulting in a significant calcium flux (CCR5) | minimal concentration of gp120 resulting in a significant calcium flux (CCR5; listed as IIIB) [nM] | minimal concentration of gp120 resulting in a significant calcium flux (CCR1) | minimal concentration of gp120 resulting in a significant calcium flux (CX3CR1) | minimal concentration of gp120 resulting in a significant calcium flux (CXCR6/Bonzo) | minimal concentration of gp120 resulting in a significant calcium flux (Bob; 100 or 250 nM to at least 1 pM) | Bob activation / calcium signals in Bob-transfected Ghost (3) cells, in words (Bob; listed as SF2)
gp120IIIB: HIV-1 envelope surface protein gp120 of strain IIIB (X4 trophic), from the AIDS Research Reagent Referral Program | extremely potent activator | 15 | at least 150 pM | 150 | about 1 nM | 250 | — | — | — |  | 
gp120SF2: gp120 of HIV strain SF2 (X4R5 trophic) |  |  | — |  | — |  | — | — | — | — | do not activate Bob; also recorded: did not cause calcium signals
